The chains are these.
T1: His.Tag AcNPV DBP (Autographa californica nuclear polyhedrosis virus, UniProt P41430)
T1 construct: made in house; host or cells: E. coli BL21 (DE3)
T1 sequence (P41430 whole entry, looked up): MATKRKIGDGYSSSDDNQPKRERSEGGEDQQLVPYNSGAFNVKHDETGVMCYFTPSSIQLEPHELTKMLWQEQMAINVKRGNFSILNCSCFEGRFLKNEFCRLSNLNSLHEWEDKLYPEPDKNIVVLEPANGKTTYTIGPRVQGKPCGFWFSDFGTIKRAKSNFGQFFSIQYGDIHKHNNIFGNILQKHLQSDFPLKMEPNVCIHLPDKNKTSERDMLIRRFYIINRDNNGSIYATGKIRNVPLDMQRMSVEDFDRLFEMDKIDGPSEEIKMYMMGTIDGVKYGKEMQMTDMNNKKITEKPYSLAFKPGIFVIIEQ

No end group written: not given here.

The first test concerns the target recombinant His.Tag AcNPV DBP (Autographa californica nucleopolyhedrovirus DNA-binding protein) (Autographa californica nucleopolyhedrovirus (AcNPV)). Briefly: ELISA: FliTrx protein solution coated, 6 ug His.Tag AcNPV DBP added, detected with anti-penta-His and goat anti-mouse IgG-AP; mean of duplicate; negative controls (empty plates) 0.14.
Conditions: not given
Take AMLRAACVVRSM (peptide, part only; not given: FliTrx scaffold, part only, also: inserted in thioredoxin active-site loop of FliTrx fusion protein) [FliTrx selected peptide ligand No. 2 (…), as FliTrx protein solution]: the ELISA (O.D. λ = 405 nm) (O.D. λ = 405 nm) came out at 0.56.

In the case of GGGGRRSGGACP (peptide, part only; not given: FliTrx scaffold, part only, also: inserted in thioredoxin active-site loop of FliTrx fusion protein) [FliTrx selected peptide ligand No. 4 (…), as FliTrx protein solution], the ELISA (O.D. λ = 405 nm) (O.D. λ = 405 nm) came to 1.13.

With PAQAQTRRRRPR (peptide, part only; not given: FliTrx scaffold, part only, also: inserted in thioredoxin active-site loop of FliTrx fusion protein) [FliTrx selected peptide ligand No. 5 (…), as FliTrx protein solution], the ELISA (O.D. λ = 405 nm) (O.D. λ = 405 nm) stood at 1.35.

With AGRKGERGSVLQ (peptide, part only; not given: FliTrx scaffold, part only, also: inserted in thioredoxin active-site loop of FliTrx fusion protein) [FliTrx selected peptide ligand No. 1 (…), as FliTrx protein solution], the ELISA (O.D. λ = 405 nm) (O.D. λ = 405 nm) amounted to 1.21.

Regarding ADYGKGLRRAMG (peptide, part only; not given: FliTrx scaffold, part only, also: inserted in thioredoxin active-site loop of FliTrx fusion protein) [FliTrx selected peptide ligand No. 3 (…), as FliTrx protein solution], the ELISA (O.D. λ = 405 nm) (O.D. λ = 405 nm) was determined as 1.11.

Another test has as its target T1, His.Tag AcNPV DBP. In words: ELISA for His.Tag AcNPV DBP screening using the biotinylated synthesized peptide ligand. To be noted: wells coated with 2 μg His.Tag AcNPV DBP; 25 μg biotinylated peptide added; negative control (empty) plate gave 0.30. The format is binding, Autographa californica nucleopolyhedrovirus (AcNPV). The method, then: (§1) ELISA Protocols for His.Tag AcNPV DBP Screening
(§2) ELISA procedure was used for analysis of His.Tag AcNPV DBP as a target. The polystyrene microtitration plates (PolySorp™ Surface, Immuno™ Plate, Nunc) were used as the solid phase for the assay. All washes were performed four times with phosphate-buffered saline (PBS) containing 0.05% (V/V) Tween® 20 (PBS-T). The substrate solution for alkaline phosphatase (p-nitrophenyl phosphate, pNPP, 1 mg/ml, in 0.2 M Tris-HCl buffer, pH 7) was from Sigma, St. Louis, Mo. The reaction was stopped by the addition of 3 M NaOH (50 μl per well). The optical density at 405 nm (O.D.λ=405 nm) was measured in a microplate colorimeter (Molecular Devices, Thermo max Microplate Reader).
2. Using the Biotinylated Synthesized Peptide Ligand
Wells of the microtitration plates were coated with 50 μl (2 μg) of purified His.Tag AcNPV DBP. To account for plate binders, empty plates were used as negative controls. After incubation overnight at +4° C., the plates were washed, and the uncoated attachment sites on the plates were saturated by incubation for 1 hour at 37° C. with PBS-T-M (200 μl per well). The plates were then washed, and an aliquot of 100 μl (25 μg) of the biotinylated synthesized peptide ligand No. 4 (SEQ ID NO. 6) (Invitrogen, Carlsbad, Calif.) was added to both the target plate and the control plate. Plates were incubated for 1 hour at 37° C. […]
As for “biotinylated synthesized peptide ligand No. 4: biotinylated synthesized peptide ligand No. 4 (SEQ ID NO. 6), GGGGRRSGGACP (also: biotinylated)”, the “mean O.D. value, target plate” value is reported as “about 4.0”.

A further test deals with T1, His.Tag AcNPV DBP. In words: ELISA for His.Tag AcNPV DBP screening using the FliTrx protein solution. The format is binding, Autographa californica nucleopolyhedrovirus (AcNPV). To be noted: wells coated with FliTrx protein solution of positive clones; 6 μg His.Tag AcNPV DBP added; mean of duplicate; mean O.D. of negative controls 0.14. The method, then:
as §1, §2
1. Using the FliTrx™ Protein Solution
Wells of the microtitration plates were coated with the FliTrx™ protein solutions obtained from induced culture cell of positive clones that contain the peptides recognized by His.Tag AcNPV DBP (50 μl per well). To account for plate binders, empty plates were used as negative controls. After incubation overnight at +4° C., the plates were washed, and the uncoated attachment sites on the plates were saturated by incubation for 1 hour at 37° C. with a solution of 2% nonfat dry milk in PBS-T: PBS-T-M (200 μl per well). The plates were then washed, and an aliquot of 100 μl (6 μg) of the purified His.Tag AcNPV DBP was added to both the target plate and the control plate. Plates were incubated for. 1 hour at 37° C. The plates were then washed, and 100 μl of a 1:1,000 dilution of mouse monoclonal Ig G1 antibody to penta-His™ (QIAGEN, Valencia, Calif.) in PBS-T-M were added. After being incubated again for 1 hour at 37° C., the plates were washed, and 100 μl of a 1:1,000 dilution of goat anti-mouse IgG conjugated to alkaline phosphatase (Bio-Rad Laboratories, Hercules, Calif.) were added. After being incubated again for 1 hour at 37° C., the plates were washed, and substrate solution (200 [l per well) was added. After incubation for 1 hour at 37° C., the reaction was stopped.
(In general: An ELISA detects its analyte on a solid surface through an enzyme-linked reagent.)
Turning to “ADYGKGLRRAMG (baculovirus) [Peptide ligand No. 3, FliTrx selected dodecapeptide ligand recognized by His.Tag AcNPV DBP]”, the “ELISA (O.D. λ = 405 nm), affinity for His.Tag AcNPV DBP” value (“ELISA (O.D. λ = 405 nm), affinity” below) is 1.11.

Consider “AGRKGERGSVLQ (baculovirus) [Peptide ligand No. 1, FliTrx selected dodecapeptide ligand recognized by His.Tag AcNPV DBP]”, for which the “ELISA (O.D. λ = 405 nm), affinity” value is 1.21.

On to “AMLRAACVVRSM (baculovirus) [Peptide ligand No. 2, FliTrx selected dodecapeptide ligand recognized by His.Tag AcNPV DBP]”, for which the “ELISA (O.D. λ = 405 nm), affinity” value was 0.56.

In the case of “GGGGRRSGGACP (baculovirus) [Peptide ligand No. 4, FliTrx selected dodecapeptide ligand recognized by His.Tag AcNPV DBP]”, the “ELISA (O.D. λ = 405 nm), affinity” value is listed as 1.13.

For the molecule “PAQAQTRRRRPR (baculovirus) [Peptide ligand No. 5, FliTrx selected dodecapeptide ligand recognized by His.Tag AcNPV DBP]”, the “ELISA (O.D. λ = 405 nm), affinity” value is given as 1.35.

For another test, the target named is recombinant His.Tag AcNPV DBP (Autographa californica nucleopolyhedrovirus DNA-binding protein) (Autographa californica nucleopolyhedrovirus (AcNPV)). In words: ELISA: 2 ug His.Tag AcNPV DBP coated, 25 ug biotinylated peptide added, detected with anti-biotin BN-34-AP; empty negative control plate 0.30.
Conditions: not given
For the molecule GGGGRRSGGACP (also: biotinylated, position not given here) [biotinylated synthesized peptide ligand No. 4 (SEQ ID NO. 6)], the mean O.D. (405 nm) came to 4 O.D.

(Values after patent US20060063917A1, “Selection of peptide ligands specific for baculovirus DNA-binding protein from the FliTrxTM random peptide display library” (Vista Biologicals Corporation, priority 2004, published 2006).)
